Data from the supplement of paper PMC10567573.

B1: WDR41 (parent)
chain: WTMQAYERNFWDPSPQLDTQQEIK
B2: SNX3 (parent)
chain: FLRQLPFRGDDGIFDDNFIEERKQ

Variants of: B1
Test: protein stability index of a GFP-peptide fusion (GPS, HEK-293T) (PSI 1-6); higher = more stable
Details: c terminus: a fixed tail appended
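Also: lentivirally expressed fusions sorted by FACS into six bins by GFP to DsRed ratio, PSI derived from sequencing read proportions per bin multiplied by bin number.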

Protein stability index: each site, then its substitutions
D18: W 1.83; Y 1.97
T19: A 2.73; C 2.19; D 2.19; E 2.37; F 1.55; H 2.74; I 2; K 2.69; L 2.5; M 2.35; N 2.96; P 2.21; Q 2.55; R 2.05; S 2.91; V 2.35; W 2.22; Y 1.62
Q20: A 1.64; C 2.75; D 3.42; E 2.35; F 1.99; G 2.19; H 2.86; I 2.07; K 2.28; L 2.19; M 2.27; N 2.88; P 2.06; R 2.44; S 2.07; T 2.04; V 2.34; Y 2.07
Q21: A 2.39; C 2.12; D 2.1; E 2.56; F 1.93; G 2.62; H 1.99; I 1.73; K 2.28; L 1.92; M 2.93; N 2.71; P 2.66; R 2.84; S 3.13; T 2.5; V 2.51; W 1.6; Y 2.61
E22: A 2.45; C 2.55; D 1.85; F 2.11; G 2.34; H 1.8; I 2.81; K 2.37; L 2.07; M 2.03; N 2.41; P 2.34; Q 2.1; R 2.15; S 2.96; T 2.33; V 2.36; W 1.88; Y 2.17
I23: A 2.99; C 2.11; D 3.61; E 3.26; F 2.43; G 3.05; H 2.75; K 3.93; L 2.91; M 2.18; N 3.24; P 2.97; Q 3.15; R 2.91; S 3.27; T 2.83; V 2.02; W 2.12; Y 2.32
K24: A 2.47; C 2.19; D 2.83; E 3.06; F 2.01; G 2.29; H 2.29; I 1.98; L 1.76; M 1.91; N 2.31; P 2.09; Q 2.44; R 2.58; S 2.59; T 2.63; V 2.17; W 1.46; Y 2.46

Variants of: B2
Test: as above
Details: c terminus: a fixed tail appended

Protein stability index, by site and new letter:
F1: A 4.63; C 4.1; D 4.7; H 5.32; I 3.58; K 4.68; L 3.83; M 3.56; N 4.44; P 4.99; Q 4.96; R 4.59; S 4.72; T 4.59; V 3.87; W 3.03; Y 4.18
L2: A 3.84; C 3.48; D 4.72; E 4.87; F 3.16; G 4.59; H 2.34; I 2.59; K 2.81; M 4.01; N 4.08; P 4.66; Q 3.07; S 4.56; T 4.04; V 2.19; W 3.02; Y 4.46
R3: A 3.28; C 2.71; D 3.45; E 3.2; F 1.97; G 3.1; H 3.12; I 2.42; K 3.43; L 1.94; M 2.76; N 3.48; P 4.09; Q 3.62; S 3.1; T 3.17; V 2.98; W 1.83
